Measured values as given in US20180230218A1.

Tests used:
[1] = biological target: human cMET (MET, c-Met, HGF receptor) on cells (human) (UniProt P08581); experiment: cell-based or functional assay
[2] = biological target: human cMET (MET, c-Met, HGF receptor) on cells (human) (UniProt P08581); experiment: flow cytometry, inhibition of HGF (50 ng/mL) binding to BxPC3 cells
[3] = biological target: human cMET (MET, c-Met, HGF receptor) on cells (human) (UniProt P08581); experiment: flow cytometry, inhibition of HGF (50 ng/mL) binding to MKN45 cells

Sequence of human cMET (MET, c-Met, HGF receptor) on cells (human) (P08581 25-1390): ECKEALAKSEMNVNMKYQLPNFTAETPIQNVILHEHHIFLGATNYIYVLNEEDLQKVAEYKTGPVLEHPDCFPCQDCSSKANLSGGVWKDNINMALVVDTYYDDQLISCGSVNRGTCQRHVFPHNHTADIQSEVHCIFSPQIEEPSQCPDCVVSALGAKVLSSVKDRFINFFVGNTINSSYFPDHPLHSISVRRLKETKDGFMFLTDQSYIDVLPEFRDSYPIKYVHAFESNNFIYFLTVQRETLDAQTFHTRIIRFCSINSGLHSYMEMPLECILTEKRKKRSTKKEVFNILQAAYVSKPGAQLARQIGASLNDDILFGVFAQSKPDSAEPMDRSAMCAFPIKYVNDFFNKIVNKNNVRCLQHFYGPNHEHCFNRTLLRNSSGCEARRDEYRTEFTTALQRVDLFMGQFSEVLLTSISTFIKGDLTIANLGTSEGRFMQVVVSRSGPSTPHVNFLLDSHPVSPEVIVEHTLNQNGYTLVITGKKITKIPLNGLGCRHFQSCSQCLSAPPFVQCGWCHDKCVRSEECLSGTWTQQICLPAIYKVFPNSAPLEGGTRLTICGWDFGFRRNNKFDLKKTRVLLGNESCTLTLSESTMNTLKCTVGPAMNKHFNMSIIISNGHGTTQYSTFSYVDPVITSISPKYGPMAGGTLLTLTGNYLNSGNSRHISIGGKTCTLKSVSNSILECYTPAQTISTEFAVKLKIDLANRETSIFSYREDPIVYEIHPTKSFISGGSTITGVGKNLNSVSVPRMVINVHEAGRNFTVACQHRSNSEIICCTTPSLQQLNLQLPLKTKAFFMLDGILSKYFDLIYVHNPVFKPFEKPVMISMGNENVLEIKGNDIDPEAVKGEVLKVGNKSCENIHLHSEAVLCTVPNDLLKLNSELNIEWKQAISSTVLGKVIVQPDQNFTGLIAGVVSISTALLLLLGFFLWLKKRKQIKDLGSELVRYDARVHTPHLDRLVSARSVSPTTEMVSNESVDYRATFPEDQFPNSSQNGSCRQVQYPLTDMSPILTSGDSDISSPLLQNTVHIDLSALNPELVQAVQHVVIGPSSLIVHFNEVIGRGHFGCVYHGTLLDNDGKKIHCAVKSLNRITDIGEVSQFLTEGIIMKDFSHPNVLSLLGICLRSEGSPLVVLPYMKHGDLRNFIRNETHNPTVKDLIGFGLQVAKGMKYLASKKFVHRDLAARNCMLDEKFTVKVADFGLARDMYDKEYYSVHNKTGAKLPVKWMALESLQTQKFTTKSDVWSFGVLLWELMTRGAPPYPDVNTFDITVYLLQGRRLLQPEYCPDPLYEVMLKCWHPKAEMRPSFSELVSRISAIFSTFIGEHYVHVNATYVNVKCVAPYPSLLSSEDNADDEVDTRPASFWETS

Substance: 5D5 (antibody)
- percent induction of NCI-H441 cell growth (WST-8), normalised to 100 ng/mL HGF [1]: 92%

Substance: 224G11 (antibody)
- % inhibition of HGF binding [2]: 50%
- % inhibition of HGF binding [3]: 67%

Substance: huIgG-SMCC-DM1 (antibody)
- in vitro cytotoxicity in MET-expressing MKN45 cells, EC50 [1]: > 30 nM
